According to paper PMC9792452:

Molecular target: T1, Interferon regulatory factor 3 (human (endogenous in A375)), Q14653
T1 chain: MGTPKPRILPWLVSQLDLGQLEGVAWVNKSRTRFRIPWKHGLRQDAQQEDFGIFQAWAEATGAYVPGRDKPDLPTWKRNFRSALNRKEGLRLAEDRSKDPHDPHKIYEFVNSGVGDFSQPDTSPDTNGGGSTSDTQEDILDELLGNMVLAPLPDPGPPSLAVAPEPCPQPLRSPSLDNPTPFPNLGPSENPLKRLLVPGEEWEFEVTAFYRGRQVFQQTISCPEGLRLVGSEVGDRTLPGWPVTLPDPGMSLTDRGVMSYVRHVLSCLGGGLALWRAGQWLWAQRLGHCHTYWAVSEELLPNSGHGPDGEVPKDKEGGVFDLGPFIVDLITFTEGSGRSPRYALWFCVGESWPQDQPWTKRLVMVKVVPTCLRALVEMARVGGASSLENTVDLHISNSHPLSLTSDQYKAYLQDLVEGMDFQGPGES
Experiment: cross-linking; covalent cross-link formed in cells (TG2-dependent), seen by Western blot of SDS-polyacrylamide gels under denaturing conditions; A375 cells treated with doxorubicin 5 μM for 6, 16 and 24 h; HeLa cells too
Details: remark: other sources report otherwise

stoichiometry N: 2
B1: Interferon regulatory factor 3, Q14653 1-427 (natural protein)
chain: T1 chain
